According to IntAct's records for PubMed 21525010:

B1: Invasin IpaA (Shigella flexneri), P18010 (parent)
chain: MHNVNNTQAPTFLYKATSPSSTEYSELKSKISDIHSSQTSLKTPASVSEKENFATSFNQKCLDFLFSSSGKEDVLRSIYSNSMNAYAKSEILEFSNVLYSLVHQNGLNFENEKGLQKIVAQYSELIIKDKLSQDSAFGPWSAKNKKLHQLRQNIEHRLALLAQQHTSGEALSLGQKLLNTEVSSFIKNNILAELKLSNETVSSLKLDDLVDAQAKLAFDSLRNQRKNTIDSKGFGIGKLSRDLNTVAVFPELLRKVLNDILEDIKDSHPIQDGLPTPPEDMPDGGPTPGANEKTSQPVIHYHINNDNRTYDNRVFDNRVYDNSYHENPENDAQSPTSQTNDLLSRNGNSLLNPQRALVQKVTSVLPHSISDTVQTFANNSALEKVFNHTPDNSDGIGSDLLTTSSQERSANNSLSRGHRPLNIQNSSTTPPLHPEGVTSSNDNSSDTTKSSASLSHRVASQINKFNSNTDSKVLQTDFLSRNGDTYLTRETIFEASKKVTNSLSNLISLIGTKSGTQERELQEKSKDITKSTTEHRINNKLKVTDANIRNYVTETNADTIDKNHAIYEKAKEVSSALSKVLSKIDDTSAELLTDDISDLKNNNDITAENNNIYKAAKDVTTSLSKVLKNINKD

Variants of: B1
Settings: with vinc_human VCL

Row | Variant | effect of a mutation on the interaction
1 | V499E;L503Q | disrupting interaction

Variants of: B1
Settings: with vinc_human VCL
Remark: another data set of the same source

Row | Variant | effect of a mutation on the interaction
2 | A495K | decreasing interaction
